Data: patent US20240269235A1 (Gilead, published 2024)

T1: IL-2Rα (recombinant IL-2 receptor α, R&D Systems Cat #: 223-2A/CF), biotinylated (human, UniProt P01589 22-213, limits assumed, biotinylated using sulfo-NHS-LC-LC-Biotin)
T1 construct: Bought reagent; also used here as the IL-2Rα partner of the in-silico analysis of PDB 2B5I (another construct); also called IL-2RA; CD25
T1 sequence (looked up): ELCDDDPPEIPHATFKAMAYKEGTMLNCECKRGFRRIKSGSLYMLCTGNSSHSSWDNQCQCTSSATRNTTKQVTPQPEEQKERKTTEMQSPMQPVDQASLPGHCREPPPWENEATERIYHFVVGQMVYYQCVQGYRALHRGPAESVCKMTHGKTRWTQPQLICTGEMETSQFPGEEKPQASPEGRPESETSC

T2: trimeric murine IL-2 receptor (IL-2Rα, IL-2Rβ, and IL-2Rγ) on CTLL-2 cells (murine, UniProt P01590 22-268; P16297 27-539; P34902 23-369)
T2 sequence (looked up) 1: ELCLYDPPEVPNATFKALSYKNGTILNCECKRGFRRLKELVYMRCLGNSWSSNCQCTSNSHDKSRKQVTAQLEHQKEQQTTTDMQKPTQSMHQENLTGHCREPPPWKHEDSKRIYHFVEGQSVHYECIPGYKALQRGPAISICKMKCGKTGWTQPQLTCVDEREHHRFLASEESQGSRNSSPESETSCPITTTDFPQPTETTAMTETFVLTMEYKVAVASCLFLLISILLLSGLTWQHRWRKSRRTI
T2 sequence (looked up) 2: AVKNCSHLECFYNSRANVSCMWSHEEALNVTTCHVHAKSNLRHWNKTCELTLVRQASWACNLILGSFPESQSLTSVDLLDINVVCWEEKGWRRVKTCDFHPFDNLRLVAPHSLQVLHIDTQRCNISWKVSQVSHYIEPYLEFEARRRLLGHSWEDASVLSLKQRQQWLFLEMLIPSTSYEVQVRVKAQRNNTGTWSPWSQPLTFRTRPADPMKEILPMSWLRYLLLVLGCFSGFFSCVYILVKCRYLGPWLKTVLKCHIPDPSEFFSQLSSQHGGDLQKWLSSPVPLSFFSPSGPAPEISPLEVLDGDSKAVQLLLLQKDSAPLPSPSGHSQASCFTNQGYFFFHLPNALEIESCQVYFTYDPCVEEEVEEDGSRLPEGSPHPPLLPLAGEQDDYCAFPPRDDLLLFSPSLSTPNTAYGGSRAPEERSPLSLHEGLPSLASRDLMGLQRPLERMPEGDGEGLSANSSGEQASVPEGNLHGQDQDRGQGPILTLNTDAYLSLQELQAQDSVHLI
T2 sequence (looked up) 3: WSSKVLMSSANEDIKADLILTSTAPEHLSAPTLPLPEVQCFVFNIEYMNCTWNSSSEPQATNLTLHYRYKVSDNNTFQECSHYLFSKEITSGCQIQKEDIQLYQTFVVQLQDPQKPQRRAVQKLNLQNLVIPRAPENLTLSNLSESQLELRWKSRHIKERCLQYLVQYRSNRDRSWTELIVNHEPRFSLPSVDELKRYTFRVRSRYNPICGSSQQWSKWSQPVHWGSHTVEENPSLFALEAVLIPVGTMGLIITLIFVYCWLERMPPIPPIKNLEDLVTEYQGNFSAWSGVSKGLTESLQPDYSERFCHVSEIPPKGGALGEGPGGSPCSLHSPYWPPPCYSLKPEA

T3: IL-2Rαβγ on KHYG-1 cells (human NK leukemia cell line that expresses IL-2Rα, β, and γ) (human, UniProt P01589 22-272; P14784 27-551; P31785 23-369)
T3 sequence (looked up) 1: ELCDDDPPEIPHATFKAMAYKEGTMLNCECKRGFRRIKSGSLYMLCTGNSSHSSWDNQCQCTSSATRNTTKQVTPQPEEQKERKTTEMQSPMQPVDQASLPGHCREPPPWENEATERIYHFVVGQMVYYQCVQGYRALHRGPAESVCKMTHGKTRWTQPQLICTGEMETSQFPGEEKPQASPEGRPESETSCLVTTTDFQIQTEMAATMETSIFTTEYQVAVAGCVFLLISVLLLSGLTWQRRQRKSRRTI
T3 sequence (looked up) 2: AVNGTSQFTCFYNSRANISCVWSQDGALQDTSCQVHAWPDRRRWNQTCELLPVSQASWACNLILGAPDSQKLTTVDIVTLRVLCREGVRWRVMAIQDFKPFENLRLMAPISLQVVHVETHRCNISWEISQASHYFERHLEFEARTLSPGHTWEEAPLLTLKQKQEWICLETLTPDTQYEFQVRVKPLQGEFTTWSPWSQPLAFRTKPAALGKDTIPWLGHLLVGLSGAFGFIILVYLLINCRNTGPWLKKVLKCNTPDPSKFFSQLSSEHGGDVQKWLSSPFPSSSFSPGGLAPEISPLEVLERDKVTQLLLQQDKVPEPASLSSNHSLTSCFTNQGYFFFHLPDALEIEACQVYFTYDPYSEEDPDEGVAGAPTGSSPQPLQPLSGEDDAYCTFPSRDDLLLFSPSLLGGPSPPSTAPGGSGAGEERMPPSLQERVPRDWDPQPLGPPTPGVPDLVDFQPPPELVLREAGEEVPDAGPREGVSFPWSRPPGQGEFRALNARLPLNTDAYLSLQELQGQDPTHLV
T3 sequence (looked up) 3: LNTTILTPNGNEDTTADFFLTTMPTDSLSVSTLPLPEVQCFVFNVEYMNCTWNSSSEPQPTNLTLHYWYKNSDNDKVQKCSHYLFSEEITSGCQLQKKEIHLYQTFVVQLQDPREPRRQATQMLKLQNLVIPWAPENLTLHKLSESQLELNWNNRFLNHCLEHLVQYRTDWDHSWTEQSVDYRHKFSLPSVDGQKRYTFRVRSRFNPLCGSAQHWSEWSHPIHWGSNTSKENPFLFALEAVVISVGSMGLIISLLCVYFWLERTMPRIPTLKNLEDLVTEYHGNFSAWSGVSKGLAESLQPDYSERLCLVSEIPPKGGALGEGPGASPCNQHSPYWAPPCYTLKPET


Key:
[1] = biological target: T1, IL-2Rα (recombinant IL-2 receptor α, …); experiment: SPR (Biacore), CM4 chip, biotinylated receptor on neutravidin
Procedure: (§1) Fc-IL-2 variant binding data was collected on a Biacore platform using a CM4 chip. Neutravidin was immobilized using standard amine coupling methods and used to capture biotinylated receptors. The source, preparation and immobilization of biotinylated IL-2Rα and IL-2Rβγ heterodimer was as described in Example 4. Proleukin was used as a comparator. Fc-IL-2 variants and Proleukin were injected at various concentrations over these surfaces. Kinetic data obtained from these injections was used to extract kₒₙ and koff to calculate KD (KD=Koff/kₒₙ).

[2] = biological target: T4, IL-2Rβγ heterodimer, custom biotinylated Fc fusion protein (human IL-2Rβ 27-240-Fc-FLAG / human IL-2Rγ … (human, site-specific biotinylation at the AviTag)); experiment: as above
T4 construct: Extracellular regions fused to IgG1 knob-in-hole Fc subunits with tags; also called IL-2 receptor βγ heterodimer; Fc-IL-2Rβγ
Procedure: as §1

[3] = biological target: T2, trimeric murine IL-2 receptor (IL-2Rα, …); experiment: cell-based or functional assay
[4] = biological target: T3, IL-2Rαβγ on KHYG-1 cells (human NK …); experiment: cell-based or functional assay

Row | Kd [1] | Kd [2] | STAT5 activation of CTLL-2 cells, EC50 [3] | Proliferation of KHYG-1 NK cells, EC50 [4] | Binder
1 |  | 0.062 nM | 41.4 nM | 0.191 nM | Fc-IL-2v heterodimer 108.46 (hIL-2v_Δ1-5_F42A_Y45G_E62A_C125S) (Fc fusion, hIgG4 knob-in-hole Fc heterodimer, one IL-2v on the knob chain) chain 1: ESKYGPPCPPCPAPEAAGGPSVFLFPPKPKDTLMISRTPEVTCVVVDVSQEDPEVQFNWYVDGVEVHNAKTKPREEQFNSTYRVVSVLTVLHQDWLNGKEYKCKVSNKGLPSSIEKTISKAKGQPREPQVYTLPPSQEEMTKNQVSLWCLVKGFYPSDIAVEWESNGQPENNYKTTPPVLDSDGSFFLYSRLTVDKSRWQEGNVFSCSVMHEALHNHYTQKSLSLSLGGGGGSGGGGSGGGGSGGGGSSTKKTQLQLEHLLLDLQMILNGINNYKNPKLTRMLTAKFGMPKKATELKHLQCLEEALKPLEEVLNLAQSKNFHLRPRDLISNINVIVLELKGSETTFMCEYADETATIVEFLNRWITFSQSIISTLT chain 2: ESKYGPPCPPCPAPEAAGGPSVFLFPPKPKDTLMISRTPEVTCVVVDVSQEDPEVQFNWYVDGVEVHNAKTKPREEQFNSTYRVVSVLTVLHQDWLNGKEYKCKVSNKGLPSSIEKTISKAKGQPREPQVYTLPPSQEEMTKNQVSLSCAVKGFYPSDIAVEWESNGQPENNYKTTPPVLDSDGSFFLVSRLTVDKSRWQEGNVFSCSVMHEALHNRFTQKSLSLSLGK
2 | > 60000 nM | 0.063 nM | 7.7 nM |  | Fc-IL-2v heterodimer 105.46 (hIL-2v_Δ1-5_F42A_Y45A_L72G_C125S) (Fc fusion, hIgG4 knob-in-hole Fc heterodimer, one IL-2v on the knob chain) chain 1: ESKYGPPCPPCPAPEAAGGPSVFLFPPKPKDTLMISRTPEVTCVVVDVSQEDPEVQFNWYVDGVEVHNAKTKPREEQFNSTYRVVSVLTVLHQDWLNGKEYKCKVSNKGLPSSIEKTISKAKGQPREPQVYTLPPSQEEMTKNQVSLWCLVKGFYPSDIAVEWESNGQPENNYKTTPPVLDSDGSFFLYSRLTVDKSRWQEGNVFSCSVMHEALHNHYTQKSLSLSLGGGGGSGGGGSGGGGSGGGGSSTKKTQLQLEHLLLDLQMILNGINNYKNPKLTRMLTAKFAMPKKATELKHLQCLEEELKPLEEVLNGAQSKNFHLRPRDLISNINVIVLELKGSETTFMCEYADETATIVEFLNRWITFSQSIISTLT chain 2: ESKYGPPCPPCPAPEAAGGPSVFLFPPKPKDTLMISRTPEVTCVVVDVSQEDPEVQFNWYVDGVEVHNAKTKPREEQFNSTYRVVSVLTVLHQDWLNGKEYKCKVSNKGLPSSIEKTISKAKGQPREPQVYTLPPSQEEMTKNQVSLSCAVKGFYPSDIAVEWESNGQPENNYKTTPPVLDSDGSFFLVSRLTVDKSRWQEGNVFSCSVMHEALHNRFTQKSLSLSLGK

Further lines, the binder ahead of its results:

Row | Binder | Kd [1] | Kd [2] | STAT5 activation of CTLL-2 cells, EC50 [3] | Proliferation of KHYG-1 NK cells, EC50 [4]
3 | Fc-IL-2v heterodimer 96.46 (hIL-2v_Δ1-5_Y45G_E61A_C125S) (Fc fusion, hIgG4 knob-in-hole Fc heterodimer, one IL-2v on the knob chain) chain 1: ESKYGPPCPPCPAPEAAGGPSVFLFPPKPKDTLMISRTPEVTCVVVDVSQEDPEVQFNWYVDGVEVHNAKTKPREEQFNSTYRVVSVLTVLHQDWLNGKEYKCKVSNKGLPSSIEKTISKAKGQPREPQVYTLPPSQEEMTKNQVSLWCLVKGFYPSDIAVEWESNGQPENNYKTTPPVLDSDGSFFLYSRLTVDKSRWQEGNVFSCSVMHEALHNHYTQKSLSLSLGGGGGSGGGGSGGGGSGGGGSSTKKTQLQLEHLLLDLQMILNGINNYKNPKLTRMLTFKFGMPKKATELKHLQCLEAELKPLEEVLNLAQSKNFHLRPRDLISNINVIVLELKGSETTFMCEYADETATIVEFLNRWITFSQSIISTLT chain 2: ESKYGPPCPPCPAPEAAGGPSVFLFPPKPKDTLMISRTPEVTCVVVDVSQEDPEVQFNWYVDGVEVHNAKTKPREEQFNSTYRVVSVLTVLHQDWLNGKEYKCKVSNKGLPSSIEKTISKAKGQPREPQVYTLPPSQEEMTKNQVSLSCAVKGFYPSDIAVEWESNGQPENNYKTTPPVLDSDGSFFLVSRLTVDKSRWQEGNVFSCSVMHEALHNRFTQKSLSLSLGK | 56000 nM | 0.064 nM | 0.4 nM | 
4 | Fc-IL-2v heterodimer 98.46 (hIL-2v_Δ1-5_R38G_Y45G_C125S) (Fc fusion, hIgG4 knob-in-hole Fc heterodimer, one IL-2v on the knob chain) chain 1: ESKYGPPCPPCPAPEAAGGPSVFLFPPKPKDTLMISRTPEVTCVVVDVSQEDPEVQFNWYVDGVEVHNAKTKPREEQFNSTYRVVSVLTVLHQDWLNGKEYKCKVSNKGLPSSIEKTISKAKGQPREPQVYTLPPSQEEMTKNQVSLWCLVKGFYPSDIAVEWESNGQPENNYKTTPPVLDSDGSFFLYSRLTVDKSRWQEGNVFSCSVMHEALHNHYTQKSLSLSLGGGGGSGGGGSGGGGSGGGGSSTKKTQLQLEHLLLDLQMILNGINNYKNPKLTGMLTFKFGMPKKATELKHLQCLEEELKPLEEVLNLAQSKNFHLRPRDLISNINVIVLELKGSETTFMCEYADETATIVEFLNRWITFSQSIISTLT chain 2: ESKYGPPCPPCPAPEAAGGPSVFLFPPKPKDTLMISRTPEVTCVVVDVSQEDPEVQFNWYVDGVEVHNAKTKPREEQFNSTYRVVSVLTVLHQDWLNGKEYKCKVSNKGLPSSIEKTISKAKGQPREPQVYTLPPSQEEMTKNQVSLSCAVKGFYPSDIAVEWESNGQPENNYKTTPPVLDSDGSFFLVSRLTVDKSRWQEGNVFSCSVMHEALHNRFTQKSLSLSLGK | 59000 nM | 0.056 nM | 0.2 nM | 
5 | Fc-IL-2v heterodimer 99.46 (hIL-2v_Δ1-5_R38G_E61A_C125S) (Fc fusion, hIgG4 knob-in-hole Fc heterodimer, one IL-2v on the knob chain) chain 1: ESKYGPPCPPCPAPEAAGGPSVFLFPPKPKDTLMISRTPEVTCVVVDVSQEDPEVQFNWYVDGVEVHNAKTKPREEQFNSTYRVVSVLTVLHQDWLNGKEYKCKVSNKGLPSSIEKTISKAKGQPREPQVYTLPPSQEEMTKNQVSLWCLVKGFYPSDIAVEWESNGQPENNYKTTPPVLDSDGSFFLYSRLTVDKSRWQEGNVFSCSVMHEALHNHYTQKSLSLSLGGGGGSGGGGSGGGGSGGGGSSTKKTQLQLEHLLLDLQMILNGINNYKNPKLTGMLTFKFYMPKKATELKHLQCLEAELKPLEEVLNLAQSKNFHLRPRDLISNINVIVLELKGSETTFMCEYADETATIVEFLNRWITFSQSIISTLT chain 2: ESKYGPPCPPCPAPEAAGGPSVFLFPPKPKDTLMISRTPEVTCVVVDVSQEDPEVQFNWYVDGVEVHNAKTKPREEQFNSTYRVVSVLTVLHQDWLNGKEYKCKVSNKGLPSSIEKTISKAKGQPREPQVYTLPPSQEEMTKNQVSLSCAVKGFYPSDIAVEWESNGQPENNYKTTPPVLDSDGSFFLVSRLTVDKSRWQEGNVFSCSVMHEALHNRFTQKSLSLSLGK | 39000 nM | 0.065 nM | 0.03 nM | 
